Reference: patent US20120316071A1 (published 2012)

target: T1, Recombinant Human DLL4 (human, UniProt Q9NR61 27-524); assay: ELISA, DLL4 coated on the plate, Fab at 100 nM, signal minus blank
T1 construct: Bought recombinant human DLL4 (R&D Systems Cat#1506-D4/CF); also called delta-like protein 4; Delta-like 4

ELISA Signal-blank (100 nM Fab) | Binder
0.248 | Fab VH5-51_IGHD5-18*01>3_IGHJ4*01 G100K/G104T G24T/S28R/G35V (H:KT TRV) & V3-4_IGLJ1*01 V91G (Fab, V domains shown, Fab; expressed from plasmid A (CH1, His6 and Flag tags) and plasmid E (lambda CL)) VH: EVQLVQSGAEVKKPGESLKISCKTSGYRFTSYWIVWVRQMPGKGLEWMGIIYPGDSDTRYSPSFQGQVTISADKSISTAYLQWSSLKASDTAMYYCARRKYSYTYDYFDYWGQGTLVTVSS VL: QTVVTQEPSFSVSPGGTVTLTCGLSSGSVSTSYYPSWYQQTPGQAPRTLIYSTNTRSSGVPDRFSGSILGNKAALTITGAQADDESDYYCGLYMGSGISYVFGTGTKVTVL
0.734 | Fab VH5-51_IGHD5-18*01>3_IGHJ4*01 G100K/G104T G24T/S28R/G35V (H:KT TRV) & V3-4_IGLJ1*01 V91L (Fab, V domains shown, Fab; expressed from plasmid A (CH1, His6 and Flag tags) and plasmid E (lambda CL)) VH: EVQLVQSGAEVKKPGESLKISCKTSGYRFTSYWIVWVRQMPGKGLEWMGIIYPGDSDTRYSPSFQGQVTISADKSISTAYLQWSSLKASDTAMYYCARRKYSYTYDYFDYWGQGTLVTVSS VL: QTVVTQEPSFSVSPGGTVTLTCGLSSGSVSTSYYPSWYQQTPGQAPRTLIYSTNTRSSGVPDRFSGSILGNKAALTITGAQADDESDYYCLLYMGSGISYVFGTGTKVTVL
0.562 | Fab VH5-51_IGHD5-18*01>3_IGHJ4*01 G100K/G104T G24T/S28R/G35V (H:KT TRV) & V3-4_IGLJ1*01 S96G (Fab, V domains shown, Fab; expressed from plasmid A (CH1, His6 and Flag tags) and plasmid E (lambda CL)) VH: EVQLVQSGAEVKKPGESLKISCKTSGYRFTSYWIVWVRQMPGKGLEWMGIIYPGDSDTRYSPSFQGQVTISADKSISTAYLQWSSLKASDTAMYYCARRKYSYTYDYFDYWGQGTLVTVSS VL: QTVVTQEPSFSVSPGGTVTLTCGLSSGSVSTSYYPSWYQQTPGQAPRTLIYSTNTRSSGVPDRFSGSILGNKAALTITGAQADDESDYYCVLYMGGGISYVFGTGTKVTVL

Second part, the binder before the results:

Binder | ELISA Signal-blank (100 nM Fab)
Fab VH5-51_IGHD5-18*01>3_IGHJ4*01 G100K/G104T G24T/S28R/G35V (H:KT TRV) & V3-4_IGLJ1*01 V91E (Fab, V domains shown, Fab; expressed from plasmid A (CH1, His6 and Flag tags) and plasmid E (lambda CL)) VH: EVQLVQSGAEVKKPGESLKISCKTSGYRFTSYWIVWVRQMPGKGLEWMGIIYPGDSDTRYSPSFQGQVTISADKSISTAYLQWSSLKASDTAMYYCARRKYSYTYDYFDYWGQGTLVTVSS VL: QTVVTQEPSFSVSPGGTVTLTCGLSSGSVSTSYYPSWYQQTPGQAPRTLIYSTNTRSSGVPDRFSGSILGNKAALTITGAQADDESDYYCELYMGSGISYVFGTGTKVTVL | 0.152
Fab VH5-51_IGHD5-18*01>3_IGHJ4*01 G100K/G104T G24T/S28R/G35V (H:KT TRV) & V3-4_IGLJ1*01 S96W (Fab, V domains shown, Fab; expressed from plasmid A (CH1, His6 and Flag tags) and plasmid E (lambda CL)) VH: EVQLVQSGAEVKKPGESLKISCKTSGYRFTSYWIVWVRQMPGKGLEWMGIIYPGDSDTRYSPSFQGQVTISADKSISTAYLQWSSLKASDTAMYYCARRKYSYTYDYFDYWGQGTLVTVSS VL: QTVVTQEPSFSVSPGGTVTLTCGLSSGSVSTSYYPSWYQQTPGQAPRTLIYSTNTRSSGVPDRFSGSILGNKAALTITGAQADDESDYYCVLYMGWGISYVFGTGTKVTVL | 0.261

target: T2, Recombinant Human DLL4 (human, UniProt Q9NR61 27-524); assay: ELISA, DLL4 coated on plate, Fab at 100 nM, absorbance at 450 nm minus blank
T2 construct: also called delta-like protein 4; rHuman DLL4

ELISA Signal-blank (100 nM Fab) | Binder
0.398 | Fab VH5-51_IGHD5-18*01>3_IGHJ4*01 G100K/G104T G24T/S28R/G35V (H:KT TRV) & V3-4_IGLJ1*01 G27A (Fab, V domains shown, Fab; expressed in E. coli with CH1 (Plasmid A, His6 and Flag tags) and lambda CL (Plasmid E); also called H:KT TRV & G27A) VH: EVQLVQSGAEVKKPGESLKISCKTSGYRFTSYWIVWVRQMPGKGLEWMGIIYPGDSDTRYSPSFQGQVTISADKSISTAYLQWSSLKASDTAMYYCARRKYSYTYDYFDYWGQGTLVTVSS VL: QTVVTQEPSFSVSPGGTVTLTCGLSSASVSTSYYPSWYQQTPGQAPRTLIYSTNTRSSGVPDRFSGSILGNKAALTITGAQADDESDYYCVLYMGSGISYVFGTGTKVTVL
0.129 | Fab VH5-51_IGHD5-18*01>3_IGHJ4*01 G100K/G104T G24T/S28R/G35V (H:KT TRV) & V3-4_IGLJ1*01 G97A (Fab, V domains shown, Fab; expressed in E. coli with CH1 (Plasmid A, His6 and Flag tags) and lambda CL (Plasmid E); also called H:KT TRV & G97A) VH: EVQLVQSGAEVKKPGESLKISCKTSGYRFTSYWIVWVRQMPGKGLEWMGIIYPGDSDTRYSPSFQGQVTISADKSISTAYLQWSSLKASDTAMYYCARRKYSYTYDYFDYWGQGTLVTVSS VL: QTVVTQEPSFSVSPGGTVTLTCGLSSGSVSTSYYPSWYQQTPGQAPRTLIYSTNTRSSGVPDRFSGSILGNKAALTITGAQADDESDYYCVLYMGSAISYVFGTGTKVTVL

Continued, binder first:

Binder | ELISA Signal-blank (100 nM Fab)
Fab VH5-51_IGHD5-18*01>3_IGHJ4*01 G100K/G104T G24T/S28R/G35V (H:KT TRV) & V3-4_IGLJ1*01 T78S (Fab, V domains shown, Fab; expressed in E. coli with CH1 (Plasmid A, His6 and Flag tags) and lambda CL (Plasmid E); also called H:KT TRV & T78S) VH: EVQLVQSGAEVKKPGESLKISCKTSGYRFTSYWIVWVRQMPGKGLEWMGIIYPGDSDTRYSPSFQGQVTISADKSISTAYLQWSSLKASDTAMYYCARRKYSYTYDYFDYWGQGTLVTVSS VL: QTVVTQEPSFSVSPGGTVTLTCGLSSGSVSTSYYPSWYQQTPGQAPRTLIYSTNTRSSGVPDRFSGSILGNKAALTISGAQADDESDYYCVLYMGSGISYVFGTGTKVTVL | 0.093
Fab VH5-51_IGHD5-18*01>3_IGHJ4*01 G100K/G104T G24T/S28R/G35V (H:KT TRV) & V3-4_IGLJ1*01 G95A (Fab, V domains shown, Fab; expressed in E. coli with CH1 (Plasmid A, His6 and Flag tags) and lambda CL (Plasmid E); also called H:KT TRV & G95A) VH: EVQLVQSGAEVKKPGESLKISCKTSGYRFTSYWIVWVRQMPGKGLEWMGIIYPGDSDTRYSPSFQGQVTISADKSISTAYLQWSSLKASDTAMYYCARRKYSYTYDYFDYWGQGTLVTVSS VL: QTVVTQEPSFSVSPGGTVTLTCGLSSGSVSTSYYPSWYQQTPGQAPRTLIYSTNTRSSGVPDRFSGSILGNKAALTITGAQADDESDYYCVLYMASGISYVFGTGTKVTVL | 0.216
Fab VH5-51_IGHD5-18*01>3_IGHJ4*01 G100K/G104T G24T/S28R/G35V (H:KT TRV) & V3-4_IGLJ1*01 G23A (Fab, V domains shown, Fab; expressed in E. coli with CH1 (Plasmid A, His6 and Flag tags) and lambda CL (Plasmid E); also called H:KT TRV & G23A) VH: EVQLVQSGAEVKKPGESLKISCKTSGYRFTSYWIVWVRQMPGKGLEWMGIIYPGDSDTRYSPSFQGQVTISADKSISTAYLQWSSLKASDTAMYYCARRKYSYTYDYFDYWGQGTLVTVSS VL: QTVVTQEPSFSVSPGGTVTLTCALSSGSVSTSYYPSWYQQTPGQAPRTLIYSTNTRSSGVPDRFSGSILGNKAALTITGAQADDESDYYCVLYMGSGISYVFGTGTKVTVL | 0.405
Fab VH5-51_IGHD5-18*01>3_IGHJ4*01 G100K/G104T G24T/S28R/G35V (H:KT TRV) & V3-4_IGLJ1*01 I98A (Fab, V domains shown, Fab; expressed in E. coli with CH1 (Plasmid A, His6 and Flag tags) and lambda CL (Plasmid E); also called H:KT TRV & I98A) VH: EVQLVQSGAEVKKPGESLKISCKTSGYRFTSYWIVWVRQMPGKGLEWMGIIYPGDSDTRYSPSFQGQVTISADKSISTAYLQWSSLKASDTAMYYCARRKYSYTYDYFDYWGQGTLVTVSS VL: QTVVTQEPSFSVSPGGTVTLTCGLSSGSVSTSYYPSWYQQTPGQAPRTLIYSTNTRSSGVPDRFSGSILGNKAALTITGAQADDESDYYCVLYMGSGASYVFGTGTKVTVL | 0.162
